The values that follow come from the supplement of paper PMC11865577.

Holding throughout (experiment): pull-down binding Z-score (relative to library population); higher = stronger binding
What all share (conditions): RNA library: Library-2

The test system of data set [1] is TO-3-N3 (biotin conjugate). An outline of the steps:
(§1)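 Heat-folded RNA library (1 μg, Cy5 or Cy3 end label, phosphate/NaCl/KCl buffer) was captured for 60 min at 25 °C on streptavidin beads displaying 100 pmol of biotin-conjugated small molecule, then washed three times. The bound fraction, eluted in hot SDS, was hybridised to a DNA barcode microarray at 55.5 °C for 20 h. Z-scores for binding were taken against the library mean and standard deviation after beads-only subtraction and trimmed averaging of replicate barcoded probes.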

Data set [2] has as its system TO-3-N3-2 (biotin conjugate). A digest of the protocol:
as §1

The test system of a further data set is TO-N3 (biotin conjugate). An outline of the steps: as §1
For data set [3], the system named is TO-N3-2 (biotin conjugate). A digest of the protocol: as §1

Take “AAGUUUGUUCGCAUUCAACCAGGACAGACUU [DMSMaPseq_invitro_SARS-CoV-2_Motif_187]”: the “pull-down binding Z-score” value is 1.1 in data set [1], 0.0441 in data set [2], 1.09 in the data set with TO-N3 (biotin conjugate) and -0.349 in data set [3].

As to GGACUUGAAAGAGCC, the “pull-down binding Z-score” value was -0.384 in data set [1], -0.442 in data set [2], -0.45 with TO-N3 (biotin conjugate) and -0.676 in data set [3].

With “GCCACAAAGGC [IAV_invivo_PA_3_Motif_6+IAV_invivo_PA_3_Motif_6]”, the “pull-down binding Z-score” value in data set [1] is -0.745; in data set [2] it was -0.685; in the data set on TO-N3 (biotin conjugate), -1.13; in data set [3], -0.964.

For the sequence GUGGCCCUGAUGGCUAC, the “pull-down binding Z-score” value in data set [1] is -0.362; in data set [2], -0.622; in the data set with TO-N3 (biotin conjugate) it was -0.412; in data set [3], -0.0973.

In the case of “GAAAAUGACUCUAAAGAGGGUUUUUUC [SHAPE_invitro_SARS-CoV-2_Motif_382]”, the “pull-down binding Z-score” value in data set [1] is -0.0158; in data set [2], -0.323; with TO-N3 (biotin conjugate), -0.18; in data set [3] it was -0.375.

As for “ACAGUCUGUACCGUCUGCGGUAUGUGGAAAGGUUAUGGCUGU”, the “pull-down binding Z-score” value in data set [1] is -0.239; in data set [2], -0.231; in the data set on TO-N3 (biotin conjugate), -0.273; in data set [3], 0.213.

With “CUAACAAUCUAGUUGUAAUGGCCUACAUUACAGGUGGUGUUGUUCAG [SHAPE_invivo_SARS-CoV-2_Motif_39]”, the “pull-down binding Z-score” value in data set [1] was -0.352; in data set [2], -0.607; in the data set on TO-N3 (biotin conjugate) it was -0.379; in data set [3], -0.761.

As to “AUUCUGAAGUUGUUCUUAAAAAGUUGAAGAAGUCUUUGAAU [DMSMaPseq_invitro_SARS-CoV-2_Motif_213]”, the “pull-down binding Z-score” value is -0.963 in data set [1], -0.324 in data set [2], -1.03 with TO-N3 (biotin conjugate) and -0.353 in data set [3].

With “AAUGUAGUAGAAUUAUACCUGCACGUGCUCGUGUAGAGUGUUUUGAUAAAUUCAAAGUGAAUUCAACAUUAGAACAGUAUGUCUUUUGUACUGUAAAUGCAUU”, the “pull-down binding Z-score” value in data set [1] is 0.059; in data set [2], 0.0794; in the data set on TO-N3 (biotin conjugate), 0.182; in data set [3], -0.209.

Take GAUGAGUACGAACUUAUGUACUCAUU: the “pull-down binding Z-score” value in data set [1] was -0.907; in data set [2] it was -0.473; in the data set with TO-N3 (biotin conjugate) it was -1.25; in data set [3] it was -0.762.

In the case of “ACCAACCACCACAAACCUCUAUCACCUCAGCUGUUUUGCAGAGUGGUUUUAGAAAAAUGGCAUUCCCAUCUGGU”, the “pull-down binding Z-score” value amounted to 0.0884 in data set [1], 0.384 in data set [2], 0.386 in the data set on TO-N3 (biotin conjugate) and 0.456 in data set [3].

Take “GGAAAUGAUUCC [IAV_invivo_PB2_1_Motif_4+IAV_invivo_PB2_1_Motif_4]”: the “pull-down binding Z-score” value in data set [1] was -0.59; in data set [2] it was -0.712; in the data set on TO-N3 (biotin conjugate), -1.05; in data set [3] it was -1.3.

As for “CUUGAACAAUGGAACCUAGUAAUAGGUUUCCUAUUCCUUACAUGGAUUUGUCUUCUACAAUUUGCCUAUGCCAACAGGAAUAGGUUUUUGUAUAUAAUUAAG”, the “pull-down binding Z-score” value in data set [1] was -0.828; in data set [2] it was -0.369; in the data set with TO-N3 (biotin conjugate) it was -1.12; in data set [3] it was -1.14.

Regarding “CUUCAUUAAAAGAAUUACUGCAAAAUGGUAUGAAUGGACGUACCAUAUUGGGUAGUGCUUUAUUAGAAG”, the “pull-down binding Z-score” value was -0.675 in data set [1], -0.0236 in data set [2], -0.621 in the data set on TO-N3 (biotin conjugate) and -0.219 in data set [3].

As for CUGACAAAGUUUUCAG, the “pull-down binding Z-score” value in data set [1] is 0.631; in data set [2] it was -0.329; in the data set on TO-N3 (biotin conjugate) it was 0.341; in data set [3], -0.543.

For the sequence CACUAAAAAGUGGAAAUACCCACAAGUUAAUG, the “pull-down binding Z-score” value in data set [1] was -0.634; in data set [2], -0.22; with TO-N3 (biotin conjugate), -0.552; in data set [3], -0.609.

Turning to “AUGGUUAUCUUACUUCUUCUUCUAAAACACCUGAAGAACAUUUUAUUGAAACCAU”, the “pull-down binding Z-score” value in data set [1] was -0.93; in data set [2], 0.0544; with TO-N3 (biotin conjugate), -1.19; in data set [3], -1.01.

“UGGGGUUGGGGUUGGGGUUGGGGUUGGGGUUGGGGU [G4_r(UGGGGU)6]”: the “pull-down binding Z-score” value came to 7.92 in data set [1], 8.72 in data set [2], 6.75 with TO-N3 (biotin conjugate) and 4.95 in data set [3].

For the sequence “UGUGCUUGUGAAAUUGUCGGUGGACAAAUUGUCACCUGUGCA”, the “pull-down binding Z-score” value in data set [1] was -0.722; in data set [2], -0.27; in the data set on TO-N3 (biotin conjugate), -0.833; in data set [3], -0.816.

On to “GGUUUGUUACAGACACACC [SHAPE_invivo_SARS-CoV-2_Motif_243]”, for which the “pull-down binding Z-score” value in data set [1] is -0.427; in data set [2], -0.488; with TO-N3 (biotin conjugate) it was -0.748; in data set [3] it was -0.785.

In the case of CUGUCACUAAG, the “pull-down binding Z-score” value was -0.404 in data set [1], -0.0755 in data set [2], -0.36 with TO-N3 (biotin conjugate) and -0.584 in data set [3].

Turning to “GUGAUAGAGCCAUGCCUAACAUGCUUAGAAUUAUGGCCUCAC”, the “pull-down binding Z-score” value in data set [1] is 0.323; in data set [2], 0.0068; with TO-N3 (biotin conjugate) it was 0.179; in data set [3] it was -0.0566.

Consider “GCCAGCACAUGGUCCAGCCAAAAACAUGGAGUAUGAUGCUGUUGC [IAV_invivo_PB1_2_Motif_34+IAV_invivo_PB1_2_Motif_34]”, for which the “pull-down binding Z-score” value in data set [1] was -0.602; in data set [2], -0.346; with TO-N3 (biotin conjugate) it was -0.304; in data set [3], 1.43.

For “GCCACUAGUCUCUAGUCAGUGUGUUAAUCUUACAACCAGAACUCAAUUACCCCCUGCAUACACUAAUUCUUUCACACGUGGU [SHAPE_invivo_SARS-CoV-2_Motif_403]”, the “pull-down binding Z-score” value was -0.0417 in data set [1], 0.101 in data set [2], 0.388 in the data set on TO-N3 (biotin conjugate) and 0.688 in data set [3].

Consider “AGUGAGUACACUGGUAAUUACCAGUGUGGUCACU [SHAPE_invivo_SARS-CoV-2_Motif_119]”, for which the “pull-down binding Z-score” value in data set [1] is 0.0351; in data set [2], 0.0249; in the data set on TO-N3 (biotin conjugate) it was -0.332; in data set [3] it was -1.01.

For the sequence UCCUUACAUGGA, the “pull-down binding Z-score” value is -0.557 in data set [1], -0.672 in data set [2], -0.321 in the data set on TO-N3 (biotin conjugate) and -1.16 in data set [3].

As for “UAGUGCAAAGAAUAGAGCUCGCACCGUAGCUGGUGUCUCUAUCUGUAGUACUA”, the “pull-down binding Z-score” value in data set [1] is -0.167; in data set [2] it was 0.188; in the data set on TO-N3 (biotin conjugate), -0.0718; in data set [3] it was 0.18.

Regarding “UAAAUUUUUGGCUUUGUGUGCUGACUCUAUCAUUAUUGGUGGAGCUAAACUUAAAGCCUUGAAUUUA”, the “pull-down binding Z-score” value in data set [1] is -0.848; in data set [2], 0.0426; with TO-N3 (biotin conjugate), -0.962; in data set [3], -1.2.

On to “UGGAUGUAAUUAUCUUGGCAAACCACGCGAACAAAUAGAUGGUUAUGUCAUGCAUGCA”, for which the “pull-down binding Z-score” value in data set [1] was -0.833; in data set [2], -0.0277; in the data set on TO-N3 (biotin conjugate), -0.682; in data set [3], 0.157.

On to “ACAUACUAGGACCUCUUUCUGCUCAAACUGGAAUUGCCGUUUUAGAUAUGU [DMSMaPseq_invitro_SARS-CoV-2_Motif_193]”, for which the “pull-down binding Z-score” value was -0.933 in data set [1], -0.407 in data set [2], -0.989 in the data set with TO-N3 (biotin conjugate) and -0.421 in data set [3].

Consider “UUAAGGUGUUUACAACAGUAGACAACAUUAA [DMSMaPseq_invitro_SARS-CoV-2_Motif_93]”, for which the “pull-down binding Z-score” value is -1.01 in data set [1], -0.382 in data set [2], -1.08 in the data set with TO-N3 (biotin conjugate) and -1.08 in data set [3].

With “GUUUGUCUUAGUGGUUUAGAUUCUUUAGACACCUAUCCUUCUUUAGAAACUAUACAAAU”, the “pull-down binding Z-score” value in data set [1] is -0.000875; in data set [2] it was 0.0248; with TO-N3 (biotin conjugate), 0.0216; in data set [3] it was -0.533.

For the sequence “GCUAACAAACAUGCUGAUUUUGACACAUGGUUUAGCCAGCGUGGUGGUAGU”, the “pull-down binding Z-score” value in data set [1] was -0.205; in data set [2], 0.101; with TO-N3 (biotin conjugate), 0.157; in data set [3], 0.519.

With “CCAUUCUUCGUAAGGGUGG [DMSMaPseq_invitro_SARS-CoV-2_Motif_28]”, the “pull-down binding Z-score” value was 0.0314 in data set [1], -0.245 in data set [2], -0.198 in the data set on TO-N3 (biotin conjugate) and -0.66 in data set [3].
